Laboratory results: patent US20240116985A1 (published 2024)
Starred links: 1 amine or outer side, 2 acyl side, 3 side chain; linkers in the order of their positions; H or OH if unused. Positions of bridges follow the written chain, without caps; N, C: chain ends. Non-standard residues stand in square brackets, D forms with d. Primed or numbered codes have the meaning given here. PyrS2″ = (S)-3-amino-1-((pent-4-en-1-yloxy)carbonyl)pyrrolidine-3-carboxylic acid (stapling residue), C=CCCCOC(=O)N1CC[C@@](N[*:1])(C(=O)[*:2])C1; B5(32) = 2-amino-2-(pent-4-en-1-yl)hept-6-enoic acid (bis-4-pentenylglycine, two alkene side chains), C=CCCCC(CCCC=C)(N[*:1])C(=O)[*:2]; B5(4) = 2,2-bis(4-pentenyl)glycine = 2-amino-2-(pent-4-en-1-yl)hept-6-enoic acid (stitching residue), C=CCCCC(CCCC=C)(N[*:1])C(=O)[*:2]; PyrS2 = (S)-3-amino-1-((pent-4-en-1-yloxy)carbonyl)pyrrolidine-3-carboxylic acid, C=CCCCOC(=O)N1CC[C@@](N[*:1])(C(=O)[*:2])C1; 3Br4FF = (S)-2-amino-3-(3-bromo-4-fluorophenyl)propanoic acid, O=C([C@H](Cc1ccc(F)c(Br)c1)N[*:1])[*:2]; B5(3) = 2,2-bis(4-pentenyl)glycine (stitching residue), C=CCCCC(CCCC=C)(N[*:1])C(=O)[*:2]; Phe(3-COOH) = N[C@@H](Cc1cccc(C(=O)O)c1)C(=O)O; Bta = N[C@@H](Cc1csc2ccccc12)C(=O)O; αAllylPro = C=CC[C@@]1(C(=O)O)CCCN1; tBuAla = CC(C)(C)C[C@H](N)C(=O)O; 3Thi = N[C@@H](Cc1ccsc1)C(=O)O; PyrS2(4) = not defined here; Aib = CC(C)(N)C(=O)O

T1: B-cat-Halo (UniProt P35222 1-781)
T1 sequence (looked up): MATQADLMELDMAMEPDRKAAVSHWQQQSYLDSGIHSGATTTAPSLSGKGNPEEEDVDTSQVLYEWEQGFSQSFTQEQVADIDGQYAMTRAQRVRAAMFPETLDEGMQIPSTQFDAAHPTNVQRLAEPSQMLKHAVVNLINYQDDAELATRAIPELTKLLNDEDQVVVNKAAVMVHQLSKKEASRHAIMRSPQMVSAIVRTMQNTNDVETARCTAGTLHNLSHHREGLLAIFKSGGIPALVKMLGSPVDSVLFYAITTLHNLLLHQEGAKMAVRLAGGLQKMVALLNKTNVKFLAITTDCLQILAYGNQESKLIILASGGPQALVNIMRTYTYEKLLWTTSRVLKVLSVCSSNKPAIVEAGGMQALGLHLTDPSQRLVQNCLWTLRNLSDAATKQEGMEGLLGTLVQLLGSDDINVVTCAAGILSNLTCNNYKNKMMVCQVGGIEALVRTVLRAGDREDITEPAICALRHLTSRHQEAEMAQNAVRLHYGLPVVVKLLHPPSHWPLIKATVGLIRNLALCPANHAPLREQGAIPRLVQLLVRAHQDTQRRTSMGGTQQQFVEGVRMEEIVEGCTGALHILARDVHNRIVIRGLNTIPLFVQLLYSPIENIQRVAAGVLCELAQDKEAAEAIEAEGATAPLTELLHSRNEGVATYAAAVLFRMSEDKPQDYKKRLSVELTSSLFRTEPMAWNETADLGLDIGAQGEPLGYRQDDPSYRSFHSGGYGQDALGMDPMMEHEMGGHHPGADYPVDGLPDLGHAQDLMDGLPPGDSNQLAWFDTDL


target: T1, B-cat-Halo; test: cell-based or functional assay

| Binder | NanoBRET Abs IC50 |
| --- | --- |
| Ac-[αAllylPro]D[tBuAla][B5(32)]D[Phe(3-COOH)]AAFL[PyrS2][3Thi][Bta]NLLLLL-NH2 (staple 1-4, 4-11; also: earlier eluting staple isomer) [I-2279] | > 20 µM |
| Ac-[αAllylPro]D[tBuAla][B5(4)]D[Phe(3-COOH)]AAFL[PyrS2][3Thi][3Br4FF]Q-NH2 (staple 1-4, 4-11) [I-2287] | 7.1 µM |
| Ac-[αAllylPro]D[tBuAla][B5(3)]D[Phe(3-COOH)]AAFL[PyrS2″][3Thi][Bta]NA[Aib]A[Aib]A-NH2 (staple 1-4, 4-11) [I-2272] | 3 µM |
| Ac-[αAllylPro]D[tBuAla][B5(32)]D[Phe(3-COOH)]AAFL[PyrS2][3Thi][Bta]NALL-NH2 (staple 1-4, 4-11; also: later eluting staple isomer) [I-2278] | 2.8 µM |
| Ac-[αAllylPro]D[tBuAla][B5(3)]D[Phe(3-COOH)]AAFL[PyrS2(4)][3Thi][Bta]NA[Aib]A-NH2 (staple 1-4, 4-11; reading uncertain; also: printed as Ac-PL3-Asp-Npg-B5-Asp-3COOHF-Ala-Ala-Phe-Leu-PyrS2-3Thi-BztA-Asn-Ala-Aib-Ala-NH2) [I-2271] | 2.3 µM |
| Ac-[αAllylPro]D[tBuAla][B5(4)]D[Phe(3-COOH)]AAFL[PyrS2][3Thi][Bta]NALALALA-NH2 (staple 1-4, 4-11; also: earlier eluting staple isomer) [I-2283] | 4.5 µM |
| Ac-[αAllylPro]D[tBuAla][B5(3)]D[Phe(3-COOH)]AAFL[PyrS2″][3Thi][Bta]NA[Aib]A[Aib]A[Aib]A-NH2 (staple 1-4, 4-11) [I-2273] | 6.2 µM |
| Ac-[αAllylPro]D[tBuAla][B5(4)]D[Phe(3-COOH)]AAFL[PyrS2][3Thi][Bta]NALALA-NH2 (staple 1-4, 4-11; also: later eluting staple isomer) [I-2282] | 3.7 µM |
| Ac-[αAllylPro]D[tBuAla][B5(3)]D[Phe(3-COOH)]AAFL[PyrS2″][3Thi][Bta]NL-NH2 (staple 1-4, 4-11) [I-2274] | 2 µM |
| Ac-[αAllylPro]D[tBuAla][B5(32)]D[Phe(3-COOH)]AAFL[PyrS2][3Thi][Bta]NLLL-NH2 (staple 1-4, 4-11; also: earlier eluting staple isomer (HPLC peak)) [I-2275] | 3.5 µM |
| Ac-[αAllylPro]D[tBuAla][B5(3)]D[Phe(3-COOH)]AAFL[PyrS2″][3Thi][Bta]NAAAAAAA-NH2 (staple 1-4, 4-11) [I-2269] | 2.3 µM |
| Ac-[αAllylPro]D[tBuAla][B5(32)]D[Phe(3-COOH)]AAFL[PyrS2][3Thi][Bta]NALL-NH2 (staple 1-4, 4-11; also: earlier eluting staple isomer) [I-2277] | 2.3 µM |
| Ac-[αAllylPro]D[tBuAla][B5(3)]D[Phe(3-COOH)]AAFL[PyrS2(4)][3Thi][Bta]NAAAAA-NH2 (staple 1-4, 4-11; reading uncertain; also: printed as Ac-PL3-Asp-Npg-B5-Asp-3COOHF-Ala-Ala-Phe-Leu-PyrS2-3Thi-BztA-Asn-Ala-Ala-Ala-Ala-Ala-NH2) [I-2268] | 3.1 µM |
| Ac-[αAllylPro]D[tBuAla][B5(4)]D[Phe(3-COOH)]AAFL[PyrS2][3Thi][Bta]NALALALA-NH2 (staple 1-4, 4-11; also: later eluting staple isomer) [I-2284] | 12.9 µM |
